Positions count from the first letter of the chain named. Blank lines part the entries; values can stand above or below the binder they belong to. Square brackets hold non-standard residues; d marks the D form. GABA = NCCCC(=O)O
Experiments:
Assay in all cases: positional peptide library pulldown on immobilised Nb, LC-MS of supernatant; signal ratio to control GFP-Nb (1 = not captured, near 0 = captured)
[1] = molecular target: T1, BC2T D2F
T1 construct: positional scanning library member
T1 peptide: Ac-PFRKAAVSHWQQ-NH2
How it was run: (§1)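 Unbound peptide left in supernatant after 1 h pulldown in PBS/0.01% CHAPS measured by reversed-phase LC-MS (8–30% eluent B gradient, 20 min).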

[2] = molecular target: T2, BC2T K4W
T2 construct: positional scanning library member
T2 peptide: Ac-PDRWAAVSHWQQ-NH2
How it was run: as §1

[3] = molecular target: T3, BC2T A5W
T3 construct: positional scanning library member
T3 peptide: Ac-PDRKWAVSHWQQ-NH2
How it was run: as §1

[4] = molecular target: T4, BC2T D2S
T4 construct: positional scanning library member
T4 peptide: Ac-PSRKAAVSHWQQ-NH2
How it was run: as §1

[5] = molecular target: T5, BC2T D2T
T5 construct: positional scanning library member
T5 peptide: Ac-PTRKAAVSHWQQ-NH2
How it was run: as §1

[6] = molecular target: T6, BC2T R3T
T6 construct: positional scanning library member
T6 peptide: Ac-PDTKAAVSHWQQ-NH2
How it was run: as §1

[7] = molecular target: T7, BC2T K4N
T7 construct: positional scanning library member
T7 peptide: Ac-PDRNAAVSHWQQ-NH2
How it was run: as §1

[8] = molecular target: T8, BC2T P1Q
T8 construct: positional scanning library member
T8 peptide: Ac-QDRKAAVSHWQQ-NH2
How it was run: as §1

[9] = molecular target: T9, BC2T D2Q
T9 construct: positional scanning library member
T9 peptide: Ac-PQRKAAVSHWQQ-NH2
How it was run: as §1

[10] = molecular target: T10, BC2T A5Q
T10 construct: positional scanning library member
T10 peptide: Ac-PDRKQAVSHWQQ-NH2
How it was run: as §1

[11] = molecular target: T11, BC2T K4Y
T11 construct: positional scanning library member
T11 peptide: Ac-PDRYAAVSHWQQ-NH2
How it was run: as §1

[12] = molecular target: T12, BC2T V7Y
T12 construct: positional scanning library member
T12 peptide: Ac-PDRKAAYSHWQQ-NH2
How it was run: as §1

[13] = molecular target: T13, BC2T A6C(Abu) (SMILES …)
T13 construct: positional scanning library member
T13 peptide: Ac-PDRKA[GABA]VSHWQQ-NH2
How it was run: as §1

[14] = molecular target: T14, BC2T D2K
T14 construct: positional scanning library member
T14 peptide: Ac-PKRKAAVSHWQQ-NH2
How it was run: as §1

[15] = molecular target: T15, BC2T A6K
T15 construct: positional scanning library member
T15 peptide: Ac-PDRKAKVSHWQQ-NH2
How it was run: as §1

[16] = molecular target: T16, BC2T K4H
T16 construct: positional scanning library member
T16 peptide: Ac-PDRHAAVSHWQQ-NH2
How it was run: as §1

[17] = molecular target: T17, BC2T A5H
T17 construct: positional scanning library member
T17 peptide: Ac-PDRKHAVSHWQQ-NH2
How it was run: as §1

[18] = molecular target: T18, BC2T V7H
T18 construct: positional scanning library member
T18 peptide: Ac-PDRKAAHSHWQQ-NH2
How it was run: as §1

[19] = molecular target: T19, BC2T Q11D
T19 construct: positional scanning library member
T19 peptide: Ac-PDRKAAVSHWDQ-NH2
How it was run: as §1

[20] = molecular target: T20, BC2T W10E
T20 construct: positional scanning library member
T20 peptide: Ac-PDRKAAVSHEQQ-NH2
How it was run: as §1

[21] = molecular target: T21, BC2T peptide PDRKAAVSHWQQ (human)
T21 construct: aa 16-27 of beta-catenin; also called BC2-tag; BC2-peptide
T21 peptide: Ac-PDRKAAVSHWQQ-NH2
How it was run: as §1

ratio [1]: 0.2
ratio [2]: 0.7
ratio [3]: 0
ratio [4]: 0.2
ratio [5]: 0.1
ratio [6]: 0.6
ratio [7]: 0.8
ratio [8]: 0.6
ratio [9]: 0.1
ratio [10]: 0.2
ratio [11]: 0.3
ratio [12]: 0.2
ratio [13]: 0.1
ratio [14]: 0.1
ratio [15]: 0.9
ratio [16]: 0.2
ratio [17]: 0.2
ratio [18]: 0.3
B1: BC2-NbR106E (VHH)
VHH: QVQLVESGGGLVQPGGSLTLSCTASGFTLDHYDIGWFRQAPGKEREGVSCINNSDDDTYYADSVKGRFTIFMDNAKDTVYLQMNSLKPEDTAIYYCAEARGCKRGEYEYDFWGQGTQVTVSS
notes: headlock mutant of BC2-Nb; immobilised on beads in this assay

B2: BC2 nanobody (VHH)
VHH: B1 VHH with E106R
notes: immobilised on beads in this assay; also called BC2-Nb; BC2 nanotrap (immobilised)
ratio [19]: 0.2
ratio [20]: 1.1
ratio [21]: 0.1

Reference: US20170137467A1 (CHROMOTEK, published 2017)
